Measurements as given in the Human Domainome abundance scans (Beltran et al. 2025).
± gives the uncertainty stated by the source.

B1: POU domain, class 3, transcription factor 3, residues 320 to 388; numbered along this chain, P20264 (parent)
chain: DDLEQFAKQFKQRRIKLGFTQADVGLALGTLYGNVFSQTTICRFEALQLSFKNMCKLKPLLNKWLEEAD

Variants of: B1
Experiment: abundance fitness (aPCA) (normalised: wild type 0, dead -1); higher = more abundant; growth selection in yeast, the domain comes from the species named
Conditions: Homo sapiens

Abundance fitness, by site and new letter:
L26: E 0.133 ± 0.077, C -0.045 ± 0.21, A 0.005 ± 0.079, M 0.058 ± 0.086, W -0.24 ± 0.07, V -0.147 ± 0.077, R 0.128 ± 0.058, G -0.227 ± 0.065, Q 0.017 ± 0.14, T -0.515 ± 0.17, K -0.076 ± 0.1, Y 0.035 ± 0.23, S 0.071 ± 0.13
G25: V -0.815 ± 0.19, A 0.161 ± 0.12, N -0.753 ± 0.45, S -0.069 ± 0.099, T -0.36 ± 0.14, M -0.754 ± 0.21, R -0.3 ± 0.068, C 0.103 ± 0.26, Q -0.682 ± 0.14
A27: R 0.031 ± 0.056, L -0.456 ± 0.098, C 0.232 ± 0.24, V -0.509 ± 0.079, P -0.8 ± 0.2, D -0.613 ± 0.21, I -0.711 ± 0.22, M -0.427 ± 0.18, E -0.375 ± 0.11, H -0.022 ± 0.15, W -0.101 ± 0.08, S -0.239 ± 0.083, Q 0.228 ± 0.12, K 0.021 ± 0.11, G -0.262 ± 0.09, Y -0.502 ± 0.17
Q21: V -0.017 ± 0.11, L -0.271 ± 0.14, P -0.23 ± 0.15, W -0.284 ± 0.14, Y -0.147 ± 0.42, K -0.298 ± 0.18, C -0.278 ± 0.39, S -0.242 ± 0.16, E -0.061 ± 0.12, G -0.629 ± 0.22, T -0.507 ± 0.35, I 0.145 ± 0.28, R -0.184 ± 0.065, H -0.08 ± 0.11, A -0.281 ± 0.12, M -0.489 ± 0.25
F10: Y -0.631 ± 0.36
G29: H -0.154 ± 0.22, Q -0.554 ± 0.44, S 0.092 ± 0.079, R 0.02 ± 0.07, V -0.468 ± 0.13, K -0.01 ± 0.12, M -0.427 ± 0.12, E -0.02 ± 0.17, T -0.004 ± 0.095, D -0.736 ± 0.24, L -0.929 ± 0.44, A 0.056 ± 0.068, W -0.478 ± 0.34, I -0.464 ± 0.2, N 0.041 ± 0.14, F -0.388 ± 0.16, C -0.594 ± 0.3, Y -0.108 ± 0.098, P -0.658 ± 0.21
V24: I -0.766 ± 0.37, K -0.899 ± 0.25, C -0.531 ± 0.41, F 0.197 ± 0.23, S -0.941 ± 0.31, D -0.882 ± 0.44, N -0.74 ± 0.33, P -0.673 ± 0.29, L -0.679 ± 0.18, W -1.05 ± 0.35, A -0.677 ± 0.22, R -0.788 ± 0.12
A22: K 0.103 ± 0.1, Q 0.036 ± 0.2, H 0.228 ± 0.34, V -0.513 ± 0.1, I -0.392 ± 0.39, G -0.25 ± 0.13, S -0.243 ± 0.085, W -0.83 ± 0.26, R -0.163 ± 0.082, L -0.49 ± 0.12, F -0.293 ± 0.21, E -0.17 ± 0.15, T -0.162 ± 0.27, P -0.849 ± 0.44
L28: Q -0.747 ± 0.24, R -1.02 ± 0.19, K -0.682 ± 0.3, G -0.943 ± 0.12, S -0.94 ± 0.21, M -0.594 ± 0.17, T -0.8 ± 0.34, V -0.703 ± 0.12, N -0.71 ± 0.23, A -0.639 ± 0.2, W -0.981 ± 0.27
F19: G -1.03 ± 0.38, V -0.236 ± 0.11, A -0.243 ± 0.12, W -0.408 ± 0.2, P -0.625 ± 0.3, K -0.426 ± 0.19, R -0.466 ± 0.19, S -0.848 ± 0.3, E -0.495 ± 0.43, I 0.119 ± 0.18, L -0.202 ± 0.1
G33: M -0.792 ± 0.23, D -0.545 ± 0.16, P -0.204 ± 0.19, L -0.922 ± 0.19, Q -0.263 ± 0.44, A -0.382 ± 0.096, F -0.766 ± 0.38, W -0.722 ± 0.46, H -0.753 ± 0.45, S -0.885 ± 0.36, I -0.7 ± 0.33, V -1.09 ± 0.23, Y -0.523 ± 0.31
R13: G -0.745 ± 0.18, T -0.561 ± 0.18, W -0.697 ± 0.16, A -0.385 ± 0.11, S -0.582 ± 0.15, L -0.824 ± 0.16, N -0.698 ± 0.38, I -0.771 ± 0.27, P -0.865 ± 0.21, V -0.311 ± 0.099, E -0.311 ± 0.15, M -0.578 ± 0.15, Y -0.651 ± 0.17, K -0.062 ± 0.086, H -0.263 ± 0.16, Q -0.32 ± 0.098
L31: W -0.387 ± 0.09, A -0.299 ± 0.099, S -0.137 ± 0.07, H -0.229 ± 0.14, I 0.076 ± 0.21, D -0.017 ± 0.24, C -0.237 ± 0.27, V -0.195 ± 0.083, Q -0.116 ± 0.11, M -0.156 ± 0.1, K -0.118 ± 0.19, Y -0.334 ± 0.17, F -0.023 ± 0.24, G -0.565 ± 0.087, R 0.031 ± 0.053, P -0.551 ± 0.15
